Tests used:
Experiment in all cases: cell-based or functional assay
[1] = biological target: HIV-1 Env of isolate MGRM-D-018 (HIV-1)
[2] = biological target: HIV-1 Env of isolate MGRM-Chronic-B-002 (HIV-1)
[3] = biological target: HIV-1 Env of isolate JRCSF (HIV-1) (UniProt P20871)
[4] = biological target: HIV-1 Env of isolate 92UG031 (HIV-1)
[5] = biological target: HIV-1 JR-CSF Env K168A (HIV-1 (isolate JR-CSF)) (UniProt P20871)
[6] = biological target: HIV-1 Env of isolate MGRM-D-004 (HIV-1)
[7] = biological target: HIV-1 Env of isolate MGRM-F1-020 (subtype F), on pseudovirus (HIV-1)
[8] = biological target: HIV-1 Env of isolate MGRM-Chronic-B-008 (HIV-1)
[9] = biological target: HIV-1 Env of isolate MGRM-F1-018 (subtype F), on pseudovirus (HIV-1)
[10] = biological target: HIV-1 Env of isolate NL43 (HIV-1)
[11] = biological target: HIV-1 Env of isolate TRJ04551.58 (HIV-1)
[12] = biological target: HIV-1 Env of isolate MGRM-A-012 (clade A), on pseudovirus (HIV-1)
[13] = biological target: HIV-1 JR-CSF Env N156A (HIV-1 (isolate JR-CSF)) (UniProt P20871)
[14] = biological target: HIV-1 JR-CSF Env R166A (HIV-1 (isolate JR-CSF)) (UniProt P20871)
[15] = biological target: HIV-1 Env of isolate MGRM-AE-003 (CRF01_AE), on pseudovirus (HIV-1)
[16] = biological target: HIV-1 Env of isolate MGRM-D-024 (subtype D), on pseudovirus (HIV-1)
[17] = biological target: HIV-1 Env of isolate MGRM-AG-006 (CRF_AG), on pseudovirus (HIV-1)
[18] = biological target: HIV-1 JR-CSF Env T162A (HIV-1 (isolate JR-CSF)) (UniProt P20871)
[19] = biological target: HIV-1 JR-CSF Env D113A (HIV-1 (isolate JR-CSF)) (UniProt P20871)
[20] = biological target: HIV-1 TRJ04551.58 Env (pseudovirus) (HIV-1)
[21] = biological target: HIV-1 Env of isolate MGRM-C-019 (pseudovirus) (HIV-1 isolate MGRM-C-019, subtype C)
[22] = biological target: HIV-1 Env of isolate MGRM-C-028 (pseudovirus) (HIV-1 isolate MGRM-C-028, subtype C)
[23] = biological target: HIV-1 Env of isolate MGRM-C-013 (pseudovirus) (HIV-1 isolate MGRM-C-013, subtype C)
[24] = biological target: HIV-1 Env of isolate MGRM-C-025 (pseudovirus) (HIV-1 isolate MGRM-C-025, subtype C)
[25] = biological target: HIV-1 TRO.11 Env (pseudovirus) (HIV-1)
[26] = biological target: HIV-1 Env of isolate MGRM-F1-014 (HIV-1)
[27] = biological target: HIV-1 MGRM-Chronic-B-012 Env (pseudovirus) (HIV-1)
[28] = biological target: HIV-1 Env of isolate MG RM-AG-009 (HIV-1)
[29] = biological target: HIV-1 MGRM-Chronic-B-002 Env (pseudovirus) (HIV-1)

Substance | IC50 [1] | IC50 [2] | IC50 [3] | neutralization IC50 [4] | Fold IC50 increase relative to wild-type [5] | IC50 [6] | IC50, pseudovirus neutralization [7] | IC50 [8] | IC50, pseudovirus neutralization [9] | IC50 [10] | IC50 [11] | IC50, single-round pseudovirus neutralization [12] | Fold IC50 increase relative to wild-type [13] | Fold IC50 increase relative to wild-type [14] | IC50, single-round pseudovirus neutralization [15] | IC50, pseudovirus neutralization [16] | IC50, single-round pseudovirus neutralization [17] | Fold IC50 increase relative to wild-type [18] | Fold IC50 increase relative to wild-type [19] | also measured
5136_H01 (PGT-131) (antibody) | 0.148 µg/mL | > 50 µg/mL | 0.029 µg/mL | > 50 µg/mL | 1.7 fold | 2.01 µg/mL | > 50 µg/mL | > 50 µg/mL | > 50 µg/mL | > 50 µg/mL | 0.088 µg/mL | > 50 µg/mL | 1 fold | 1.6 fold | 1.41 µg/mL | > 50 µg/mL | 0.019 µg/mL | 0.6 fold | – | –
5329_C19 (PGT-136) (antibody) | > 50 µg/mL | > 50 µg/mL | > 50 µg/mL | > 50 µg/mL | – | > 50 µg/mL | 9.31 µg/mL | > 50 µg/mL | > 50 µg/mL | 27.7 µg/mL | > 50 µg/mL | > 50 µg/mL | – | – | > 50 µg/mL | > 50 µg/mL | 29.1 µg/mL | – | – | –
5147_N06 (PGT-130) (antibody) | 0.049 µg/mL | > 50 µg/mL | 0.01 µg/mL | > 50 µg/mL | 1.2 fold | 1.21 µg/mL | 9.73 µg/mL | 5.18 µg/mL | > 50 µg/mL | > 50 µg/mL | 0.023 µg/mL | > 50 µg/mL | 1.5 fold | 1.2 fold | 0.337 µg/mL | > 50 µg/mL | 0.009 µg/mL | 0.6 fold | 0.8 fold | –
5343_B08 (PGT-135) (antibody) | 0.039 µg/mL | > 50 µg/mL | 0.131 µg/mL | > 50 µg/mL | 0.4 fold | > 50 µg/mL | 0.168 µg/mL | > 50 µg/mL | > 50 µg/mL | 8.03 µg/mL | > 50 µg/mL | > 50 µg/mL | 0.3 fold | 0.9 fold | > 50 µg/mL | > 50 µg/mL | 17.9 µg/mL | 0.9 fold | 0.8 fold | –
5123_A06 (PGT-125) (antibody) | – | – | – | – | 0.9 fold | – | – | – | – | – | – | – | 3.6 fold | 1.5 fold | – | – | – | 0.5 fold | 1.1 fold | IC50, pseudovirus neutralization [20]: 0.019 µg/mL; IC50 (µg/mL) neutralization [21]: 0.13 µg/mL; IC50 (µg/mL) neutralization [22]: 14 µg/mL; IC50 (µg/mL) neutralization [23]: > 50 µg/mL; IC50 (µg/mL) neutralization [24]: 42.5 µg/mL; IC50, pseudovirus neutralization [25]: 0.111 µg/mL; IC50 [26]: > 50 µg/mL; IC50, pseudovirus neutralization [27]: 0.036 µg/mL; neutralization IC50 [28]: 0.026 µg/mL; IC50, pseudovirus neutralization [29]: 0.064 µg/mL
5345_I01 (PGT-137) (antibody) | 15.1 µg/mL | > 50 µg/mL | > 50 µg/mL | > 50 µg/mL | – | > 50 µg/mL | 1.93 µg/mL | > 50 µg/mL | > 50 µg/mL | 17.4 µg/mL | > 50 µg/mL | > 50 µg/mL | – | – | > 50 µg/mL | > 50 µg/mL | 28.3 µg/mL | – | – | –
5114_A19 (PGT-128) (antibody) | 0.008 µg/mL | 0.036 µg/mL | 0.003 µg/mL | > 50 µg/mL | 1.1 fold | 24.9 µg/mL | 0.355 µg/mL | 0.143 µg/mL | 0.023 µg/mL | > 50 µg/mL | 0.019 µg/mL | 0.025 µg/mL | 0.4 fold | 2.7 fold | 0.18 µg/mL | 0.067 µg/mL | 0.009 µg/mL | 1.1 fold | 0.5 fold | –
4858_P08 (PGT-123) (antibody) | – | – | – | – | 0.8 fold | – | – | – | – | – | – | – | 6.2 fold | 0.9 fold | – | – | – | 0.7 fold | 1.1 fold | IC50, pseudovirus neutralization [20]: 16.9 µg/mL; IC50 (µg/mL) neutralization [21]: > 50 µg/mL; IC50 (µg/mL) neutralization [22]: 0.402 µg/mL; IC50 (µg/mL) neutralization [23]: 14.9 µg/mL; IC50 (µg/mL) neutralization [24]: 13.3 µg/mL; IC50, pseudovirus neutralization [25]: 0.008 µg/mL; IC50 [26]: 0.111 µg/mL; IC50, pseudovirus neutralization [27]: 0.227 µg/mL; neutralization IC50 [28]: 0.073 µg/mL; IC50, pseudovirus neutralization [29]: 0.234 µg/mL
